Assay results taken from patent publication US7115556B2, “Use of anti-prolactin agents to treat proliferative conditions” (Greenville Hospital System, priority 1998, dated 2006).

Key:
rat Nb2 T lymphoma cells = conditions: Goffin et al., 1994; cited from earlier work
[1] = system: MCF-7 human breast cancer cells; assay: Mixed cell culture assay with transfected L cells, MCF-7; type: cell-based; conditions: MCF-7, three days
[2] = system: T47D human breast cancer cells; assay: Mixed cell culture assay with transfected L cells, T47D; type: cell-based
Text: For certain experiments, a mixed cell culture assay was used, diagramatically represented in FIG. 6. In this assay, breast cancer cells were co-cultured with expressor cells which had been transfected with nucleic acid encoding PRL or a PRL variant and expressing those recombinant proteins. By varying the number of expressor cells, the amount of PRL or PRL variant present in the mixed cell culture was increased or decreased. […] In certain wells, which served as a control, no expresser cells were added. Then, increasing numbers of expresser cells (transfected L cells expressing either HPRL (L-PRL) or hPRLA (L-PRLA)) were added to breast cancer cell-containing wells to create mixed cultures. The same numbers of expressor cells were cultured in parallel (without T47D cells) to serve as controls. After culturing under standard conditions for a period of time, the number of cells present in the wells was counted, and the number of L cells in the corresponding control culture was subtracted. The resulting number could then be compared to the number of T47D cells in the T47D control culture to evaluate the effects of the recombinant product on breast cancer cell proliferation.

[3] = system: T47D human breast cancer cells; assay: Cell proliferation assay, cell counting; type: cell-based; conditions: FIGS. 5A-B
Method: Cell proliferation assays. hPRLA was tested for its ability to inhibit breast cancer cell proliferation in tissue culture. The human breast cancer cells were grown in corresponding culture media according to ATCC recommendations. Cells were maintained at 37° C. in a humidified atmosphere of 5% CO2 in air. The assay conditions were essentially as described by Ginsburg and Vonderharr (1995, Cancer Res. 55:2591–2595). For individual growth experiments, cells were plated in 12 well culture plates at a density of approximately 2×10^4 /ml, 1 ml/ well. Cells were then allowed to attach for one day (T-47D, MCF-7, HTB19, and HTB20 cells, except for HTB 123, which is a suspension cells), then the overlying media was removed and changed to serum-free conditions with media containing ITS^+ (insulin-transferring-selenium-BSA-linoleic acid culture supplement; Collaborative Research Bedford, Mass.). Varying concentrations of hPRL alone or in combination with hPRLA were introduced. After an additional three days in culture, cells were harvested after brief trypsinization and counted in a cell counter.

Caspase-3 = molecular target: T1, Caspase-3 (Homo sapiens, UniProt P42574); assay: ApopAlert CPP32/Caspase-3 assay in T-47D cells; type: cell-based; conditions: 250 ng/ml, 2 h, with DEVD-CHO control
T1 construct: endogenous in cells; host or cells: T-47D
T1 sequence (P42574 29-277): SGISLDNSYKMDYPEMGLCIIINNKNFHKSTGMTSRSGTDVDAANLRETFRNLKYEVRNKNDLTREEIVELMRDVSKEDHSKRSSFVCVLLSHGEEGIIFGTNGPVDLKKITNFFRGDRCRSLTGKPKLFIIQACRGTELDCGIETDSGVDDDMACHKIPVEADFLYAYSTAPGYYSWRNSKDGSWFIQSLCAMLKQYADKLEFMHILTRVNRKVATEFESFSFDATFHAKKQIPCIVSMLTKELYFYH
Method: FIG. 24. Induction of Caspase-3 by bPRL-G129R. The effect of hPRL-G129R on Caspase-3 activation in T-47D cells using an ApopAlert CPP32/Caspase-3 assay kit (Clontech, Palo Alto, Calif.) is shown. T-47D cells were treated with 250 ng/ml of hPRL-G129R for 2 h. […] The samples were in duplicate and each sample constituted about 2 million cells.
In addition, the effect of hPRL-G129R on Caspase-3 activation was assayed in T-47D cells using an ApopAlert CPP32/Caspase-3 assay kit (Clontech, Palo Alto, Calif.) as presented in FIG. 24. T-47D cells were treated with 250 ng/ml of hPRL-G129R for 2 h.

hPRLR = molecular target: T2, hPRLR (Homo sapiens, UniProt P16471); conditions: Goffin et al., 1996; cited from earlier work
T2 sequence (P16471 25-622): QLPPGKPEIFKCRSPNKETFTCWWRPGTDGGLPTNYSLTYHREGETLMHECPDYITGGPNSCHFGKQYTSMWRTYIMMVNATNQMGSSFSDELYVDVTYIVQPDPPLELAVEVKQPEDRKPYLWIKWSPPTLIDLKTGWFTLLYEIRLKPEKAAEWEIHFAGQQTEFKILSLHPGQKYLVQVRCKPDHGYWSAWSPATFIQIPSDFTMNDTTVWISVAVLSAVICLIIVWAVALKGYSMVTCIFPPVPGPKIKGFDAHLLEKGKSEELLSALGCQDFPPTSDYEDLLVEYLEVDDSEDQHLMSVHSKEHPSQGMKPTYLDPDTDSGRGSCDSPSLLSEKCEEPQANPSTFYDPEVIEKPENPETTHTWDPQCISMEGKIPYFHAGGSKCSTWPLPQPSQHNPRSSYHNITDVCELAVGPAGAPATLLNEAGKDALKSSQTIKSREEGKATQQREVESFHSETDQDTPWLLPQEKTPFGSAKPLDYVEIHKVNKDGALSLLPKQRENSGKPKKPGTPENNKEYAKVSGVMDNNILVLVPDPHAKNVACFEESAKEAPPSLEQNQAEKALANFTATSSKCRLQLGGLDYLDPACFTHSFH

B1: hPRL-G129R: variant of human prolactin having a substitution of the glycine at position 129 with an arginine residue; prolactin receptor antagonist (protein)
chain: LPICPGGAARCQVTLRDLFDRAVVLSHYIHNLSSEMFSEFDKRYTHGRGFITKAINSCHTSSLATPEDKEQAQQMNQKDFLSLIVSILRSWNEPLYHLVTEVRGMQEAPEAILSKAVEIEEQTKRLLERMELIVSQVHPETKENEIYPVWSGLPSLQMADEESRLSAYYNLLHCLRRDSHKIDNYLKLLKCRIIHNNNC
activity in Nb2 proliferation assay (rat Nb2 T lymphoma cells): weak agonist
effect on proliferation in mixed cell culture [1]: inhibitory effect
effect on proliferation in mixed cell culture ([2]; T47D, three days, effect greater than on MCF-7): inhibitory effect
inhibition of T47D proliferation ([2]; co-culture with L cells expressing hPRLA, 24 h to five days): up to 100%
proliferation of T47D cells relative to untreated control cultures [3]: comparable inhibitory effect
Caspase-3 activation (Caspase-3): Caspase-3 induction
effect in PRLR reporter gene assay (hPRLR): antagonist effect
